The record followed here is US7067277B1, “Chimeric G proteins and uses thereof” (H. Lundbeck A/S, priority 1999, dated 2006).

Numbering of substitutions follows the chain as printed.

What all share (experiment): Calcium mobilization (FLIPR, Fluo-3) in transfected COS-7 cells
What all share (type): cell-based
(A change in cytosolic calcium serves as a functional read-out for many receptors and channels.)

One test deals with T1, h 5HT1A (Homo sapiens, UniProt P08908).
T1 sequence (P08908 1-422): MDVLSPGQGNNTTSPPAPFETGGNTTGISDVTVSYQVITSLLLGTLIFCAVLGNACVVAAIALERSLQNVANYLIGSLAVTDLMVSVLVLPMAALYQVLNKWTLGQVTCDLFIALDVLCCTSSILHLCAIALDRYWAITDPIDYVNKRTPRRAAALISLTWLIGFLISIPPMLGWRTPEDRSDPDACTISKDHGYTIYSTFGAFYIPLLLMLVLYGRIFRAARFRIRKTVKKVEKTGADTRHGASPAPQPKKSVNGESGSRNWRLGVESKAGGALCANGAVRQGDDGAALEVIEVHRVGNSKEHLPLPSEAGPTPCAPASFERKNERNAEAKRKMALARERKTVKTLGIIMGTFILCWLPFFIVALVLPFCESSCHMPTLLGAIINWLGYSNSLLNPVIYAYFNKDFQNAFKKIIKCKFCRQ
The settings on record: h 5HT1A + chimera in COS-7; agonist 5HT, max 100 μM. A digest of the protocol:
(§1)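 COS-7 cells were transiently co-transfected (DEAE-dextran) with GPCR and chimeric G protein cDNA, 1:1 for a single chimera or 8:1:1 GPCR:Gαq/z:Gαq/s for the mix, and assayed two days later. Agonist-evoked Fluo-3 fluorescence was read by FLIPR over 3 min at room temperature.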

The next test addresses T2, r GALR1 (Rattus norvegicus, UniProt Q62805).
T2 sequence (Q62805 1-346): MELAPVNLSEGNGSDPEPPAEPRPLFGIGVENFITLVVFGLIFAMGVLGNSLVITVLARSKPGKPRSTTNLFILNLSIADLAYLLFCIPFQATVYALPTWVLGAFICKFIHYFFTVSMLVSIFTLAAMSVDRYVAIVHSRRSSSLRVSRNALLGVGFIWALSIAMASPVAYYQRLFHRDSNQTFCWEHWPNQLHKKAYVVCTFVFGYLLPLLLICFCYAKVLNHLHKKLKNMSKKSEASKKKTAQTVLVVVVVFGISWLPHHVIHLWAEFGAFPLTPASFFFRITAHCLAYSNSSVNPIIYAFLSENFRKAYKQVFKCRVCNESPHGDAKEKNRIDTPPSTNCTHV
The following applies: r GALR1 + chimera in COS-7; agonist GAL, max 10 μM. A digest of the protocol: as §1

In a further test the target is T3, h NPFF2 (Homo sapiens, UniProt Q9Y5X5).
T3 construct: expressed in transfected cells; host or cells: COS-7
The settings on record: h NPFF2 + chimera in COS-7; agonist NPFF, max 10 μM. An outline of the steps: as §1

Another test deals with T4, h NPFF1 (Homo sapiens, UniProt Q9GZQ6).
T4 construct: expressed in transfected cells; host or cells: COS-7
The following applies: h NPFF1 + chimera in COS-7; agonist NPFF, max 10 μM. A digest of the protocol:
as §1

A further test deals with r Y4 (Rattus norvegicus, UniProt Q63447). The settings on record: r Y4 + chimera in COS-7; agonist PP, max 10 μM. An outline of the steps: as §1
A further test has as its target T5, h Y5 (Homo sapiens, UniProt Q15761).
T5 construct: expressed in transfected cells; host or cells: COS-7
T5 sequence (Q15761 1-445): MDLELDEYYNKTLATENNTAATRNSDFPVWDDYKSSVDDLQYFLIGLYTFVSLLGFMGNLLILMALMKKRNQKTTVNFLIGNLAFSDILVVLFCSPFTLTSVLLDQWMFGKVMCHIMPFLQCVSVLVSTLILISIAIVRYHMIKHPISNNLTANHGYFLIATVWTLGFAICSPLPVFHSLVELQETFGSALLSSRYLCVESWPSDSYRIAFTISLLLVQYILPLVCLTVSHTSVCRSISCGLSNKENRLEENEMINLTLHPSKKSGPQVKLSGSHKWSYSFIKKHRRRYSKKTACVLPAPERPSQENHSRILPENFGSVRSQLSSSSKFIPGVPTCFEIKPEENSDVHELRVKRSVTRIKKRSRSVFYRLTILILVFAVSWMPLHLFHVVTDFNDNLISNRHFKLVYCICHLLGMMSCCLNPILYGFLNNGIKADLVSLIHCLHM
The settings on record: h Y5 + chimera in COS-7; agonist NPY, max 10 μM. A digest of the protocol: as §1

Another test has as its target h MCH (Homo sapiens, UniProt Q99705). The settings on record: h MCH + chimera in COS-7; agonist MCH, max 10 μM. A digest of the protocol:
as §1

Chain of h MCH (Q99705 whole entry): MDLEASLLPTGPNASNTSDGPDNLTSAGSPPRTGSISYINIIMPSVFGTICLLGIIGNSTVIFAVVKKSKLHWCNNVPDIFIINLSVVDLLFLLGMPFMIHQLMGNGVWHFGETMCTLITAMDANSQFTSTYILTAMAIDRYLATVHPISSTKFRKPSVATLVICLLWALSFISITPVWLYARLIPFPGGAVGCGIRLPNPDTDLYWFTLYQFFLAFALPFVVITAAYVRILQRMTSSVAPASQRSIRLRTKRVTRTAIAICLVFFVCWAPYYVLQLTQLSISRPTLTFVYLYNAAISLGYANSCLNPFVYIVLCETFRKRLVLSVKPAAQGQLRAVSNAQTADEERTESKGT
T4 sequence (Q9GZQ6 whole entry): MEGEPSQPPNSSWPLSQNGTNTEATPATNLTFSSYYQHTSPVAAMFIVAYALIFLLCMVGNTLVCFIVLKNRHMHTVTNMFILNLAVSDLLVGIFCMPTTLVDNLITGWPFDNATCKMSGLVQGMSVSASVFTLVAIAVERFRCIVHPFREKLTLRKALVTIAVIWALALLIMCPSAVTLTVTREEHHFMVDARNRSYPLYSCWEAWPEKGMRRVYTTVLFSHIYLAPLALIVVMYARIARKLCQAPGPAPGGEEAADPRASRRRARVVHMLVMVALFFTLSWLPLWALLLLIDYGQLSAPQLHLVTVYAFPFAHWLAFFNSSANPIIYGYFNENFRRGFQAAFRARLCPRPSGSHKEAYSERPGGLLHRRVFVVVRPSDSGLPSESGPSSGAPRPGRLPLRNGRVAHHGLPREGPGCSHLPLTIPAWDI
Chain of r Y4 (Q63447 whole entry): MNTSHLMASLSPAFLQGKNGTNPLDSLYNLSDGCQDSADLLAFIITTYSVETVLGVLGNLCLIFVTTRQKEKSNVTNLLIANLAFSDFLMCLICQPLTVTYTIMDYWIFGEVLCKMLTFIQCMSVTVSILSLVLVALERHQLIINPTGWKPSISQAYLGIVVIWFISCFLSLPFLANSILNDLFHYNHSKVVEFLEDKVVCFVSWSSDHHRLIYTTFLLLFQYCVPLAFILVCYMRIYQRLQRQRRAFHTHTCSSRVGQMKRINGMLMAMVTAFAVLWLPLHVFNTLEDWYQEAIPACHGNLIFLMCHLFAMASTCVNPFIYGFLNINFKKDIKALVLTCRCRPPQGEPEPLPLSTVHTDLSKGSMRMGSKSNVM
T3 sequence (Q9Y5X5 103-522 limits assumed): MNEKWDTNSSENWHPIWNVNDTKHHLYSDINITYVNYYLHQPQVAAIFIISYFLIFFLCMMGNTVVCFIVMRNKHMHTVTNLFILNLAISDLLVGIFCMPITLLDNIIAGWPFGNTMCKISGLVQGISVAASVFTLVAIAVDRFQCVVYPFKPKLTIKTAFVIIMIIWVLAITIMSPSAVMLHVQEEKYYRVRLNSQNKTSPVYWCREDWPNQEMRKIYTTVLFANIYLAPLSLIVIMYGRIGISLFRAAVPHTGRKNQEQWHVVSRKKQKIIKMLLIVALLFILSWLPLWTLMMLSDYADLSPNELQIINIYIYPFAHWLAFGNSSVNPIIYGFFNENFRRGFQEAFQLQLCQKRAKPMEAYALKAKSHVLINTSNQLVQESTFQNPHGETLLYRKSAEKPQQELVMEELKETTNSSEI

B1: cGαq/z5: chimeric Gα subunit: C-terminal final 5 amino acids of C. elegans Gαq replaced with those of hGαz (SEQ ID NO: 1) (protein)
chain: MACCLSEEAREQKRINQEIEKQLQRDKRNARRELKLLLLGTGESGKSTFIKQMRIIHGQGYSEEDKRAHIRLVYQNVFMAIQSMIRAMDTLDIKFGNESEELQEKAAVVREVDFESVTSFEEPYVSYIKELWEDSGIQECYDRRREYQLTDSAKYYLSDLRRLAVPDYLPTEQDILRVRVPTTGIIEYPFDLEQIIFRMVDVGGQRSERRKWIHCFENVTSIMFLVALSEYDQVLVECDNENRMEESKALFRTIITYPWFTNSSVILFLNKKDLLEEKILYSHLADYFPEYDGPPRDPIAAREFILKMFVDLNPDADKIIYSHFTCATDTENIRFVFAAVKDTILQHNLKYIGLC
modifications: C. elegans
Turning to B1, the “MAXIMAL SIGNAL (FLUORESCENCE UNITS)” value is 1997 fluorescence units with h 5HT1A; 3086 fluorescence units with r GALR1; 7566 fluorescence units in the test with h NPFF2; 6593 fluorescence units with h NPFF1; 3662 fluorescence units in the test with r Y4; 5314 fluorescence units with h Y5. Moreover, in the test with h MCH, the “MAXIMAL SIGNAL (FLUORESCENCE UNITS)” value is reported as 2699 fluorescence units.

B2: cGαq/z9: C. elegans Gαq with Gαz portion of the C-terminal tail extended to 9 amino acids (SEQ ID NO: 2) (protein)
chain: B1 chain with H347N
modifications: C. elegans
B2: the “MAXIMAL SIGNAL (FLUORESCENCE UNITS)” value was 3139 fluorescence units in the test with h 5HT1A; 5947 fluorescence units with r GALR1; 4578 fluorescence units with h NPFF2; 2966 fluorescence units with h NPFF1; 2583 fluorescence units in the test with r Y4; 6680 fluorescence units with h Y5. The “MAXIMAL SIGNAL (FLUORESCENCE UNITS)” value in the test with h MCH was determined as 3332 fluorescence units.
